Laboratory results taken from patent publication US20250154198A1, “PEPTIDE INHIBITORS OF INTERLEUKIN-23 RECEPTOR” (Zealand Pharma A/S, priority 2021, published 2025).
*1 amine or outer side, *2 acyl side, *3 side chain or, on linkers, in order; H or OH if unused. Bridges are numbered along the chain shown (N, C = ends). Where no end group is shown, it is not given here. [ ]: non-standard residue; d: D form. 1,3‑dibromopropan‑2‑one = linker (CAS 816-39-7) joining two Cys as 1,3-dithio-propan-2-one bridge -SCH2C(=O)CH2S-; 4‑(2-Aminoethyl)benzoyl = O=C(c1ccc(CCN[*:1])cc1)[*:2]; Trp(7-Me) = Cc1cccc2c(C[C@H](N)C(=O)O)c[nH]c12; Bip = N[C@@H](Cc1ccc(-c2ccccc2)cc1)C(=O)O; 2Nal = N[C@@H](Cc1ccc2ccccc2c1)C(=O)O; AEF = NCCOc1ccc(C[C@H](N)C(=O)O)cc1; αMeR = C[C@](N)(CCCNC(=N)N)C(=O)O; 4Pal = N[C@@H](Cc1ccncc1)C(=O)O; αMeL = CC(C)C[C@](C)(N)C(=O)O; CH2COCH2 = O=C(C[*:1])C[*:2]; 3Amb = NCc1cccc(C(=O)O)c1; Orn = NCCC[C@H](N)C(=O)O; Dab = NCC[C@H](N)C(=O)O

T1: human IL-23R endogenously expressed on DB cells (CRL-2289) (human, UniProt Q5VWK5 24-629)
T1 sequence (looked up): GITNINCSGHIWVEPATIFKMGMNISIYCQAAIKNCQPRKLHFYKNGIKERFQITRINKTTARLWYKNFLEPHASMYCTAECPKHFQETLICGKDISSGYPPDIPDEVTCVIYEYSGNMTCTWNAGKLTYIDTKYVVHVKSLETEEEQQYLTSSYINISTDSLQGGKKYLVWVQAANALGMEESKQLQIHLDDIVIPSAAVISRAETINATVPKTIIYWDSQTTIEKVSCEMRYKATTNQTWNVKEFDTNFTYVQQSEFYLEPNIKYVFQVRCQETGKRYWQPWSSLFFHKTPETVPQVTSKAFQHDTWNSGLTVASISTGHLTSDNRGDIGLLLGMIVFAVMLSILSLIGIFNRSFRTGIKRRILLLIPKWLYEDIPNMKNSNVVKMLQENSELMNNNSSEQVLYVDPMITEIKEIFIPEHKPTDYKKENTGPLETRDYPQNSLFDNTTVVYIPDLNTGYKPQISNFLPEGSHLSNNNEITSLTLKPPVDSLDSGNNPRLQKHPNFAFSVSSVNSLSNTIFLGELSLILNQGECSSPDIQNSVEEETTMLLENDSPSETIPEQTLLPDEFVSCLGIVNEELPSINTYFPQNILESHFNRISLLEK

B1: Compound 68 (peptide)
peptide: [3Amb]S[Orn]WQE[AEF][2Nal][αMeL]ER-NH2
modifications: lactam (positions not given here); lactam 3-6; not fully specified (bridges); printed as [(3-Aminomethyl)benzoyl](1c)*S[Orn](2c)WQE(2c)[Y(2-aminoethoxy)][2-Nal][2-Me-Leu]E(1c)R-[NH2]
B2: Compound 39 (peptide)
peptide: [3Amb]SCWQC[AEF][2Nal]LER-NH2
modifications: lactam N-10; linker 3-6 via CH2COCH2
SMILES: CC(C)C[C@@H]1NC(=O)[C@H](Cc2ccc3ccccc3c2)NC(=O)[C@H](Cc2ccc(OCCN)cc2)NC(=O)[C@@H]2CSCC(=O)CSC[C@H](NC(=O)[C@H](CO)NC(=O)c3cccc(c3)CNC(=O)CC[C@@H](C(=O)N[C@@H](CCCNC(=N)N)C(N)=O)NC1=O)C(=O)N[C@@H](Cc1c[nH]c3ccccc13)C(=O)N[C@@H](CCC(N)=O)C(=O)N2
B3: Compound 38 (peptide)
peptide: [3Amb]SCWQC[AEF][2Nal][αMeL]ER-NH2
modifications: lactam N-10; linker 3-6 via CH2COCH2
SMILES: CC(C)C[C@]1(C)NC(=O)[C@H](Cc2ccc3ccccc3c2)NC(=O)[C@H](Cc2ccc(OCCN)cc2)NC(=O)[C@@H]2CSCC(=O)CSC[C@H](NC(=O)[C@H](CO)NC(=O)c3cccc(c3)CNC(=O)CC[C@@H](C(=O)N[C@@H](CCCNC(=N)N)C(N)=O)NC1=O)C(=O)N[C@@H](Cc1c[nH]c3ccccc13)C(=O)N[C@@H](CCC(N)=O)C(=O)N2
B4: Compound 69 (peptide)
peptide: [3Amb]SEWQ[Orn][AEF][2Nal][αMeL]ER-NH2
modifications: lactam (positions not given here); lactam 3-6; not fully specified (bridges); printed as [(3-Aminomethyl)benzoyl](1c)*SE(2c)WQ[Orn](2c)[Y(2-aminoethoxy)][2-Nal][2-Me-Leu]E(1c)R-[NH2]
B5: Compound 26 (peptide)
peptide: Ac-KSC[Bip]QCW[2Nal]LER-NH2
modifications: lactam 1-10; linker 3-6 via CH2COCH2
SMILES: CC(=O)N[C@H]1CCCCNC(=O)CC[C@@H](C(=O)N[C@@H](CCCNC(=N)N)C(N)=O)NC(=O)[C@H](CC(C)C)NC(=O)[C@H](Cc2ccc3ccccc3c2)NC(=O)[C@H](Cc2c[nH]c3ccccc23)NC(=O)[C@@H]2CSCC(=O)CSC[C@H](NC(=O)[C@H](CO)NC1=O)C(=O)N[C@@H](Cc1ccc(-c3ccccc3)cc1)C(=O)N[C@@H](CCC(N)=O)C(=O)N2
B6: Compound 56 (peptide)
peptide: Ac-DEQCWQC[2Nal]W[αMeL]KR-NH2
modifications: lactam 2-11; linker 4-7 via CH2COCH2
SMILES: CC(=O)N[C@@H](CC(=O)O)C(=O)N[C@H]1CCC(=O)NCCCC[C@@H](C(=O)N[C@@H](CCCNC(=N)N)C(N)=O)NC(=O)[C@](C)(CC(C)C)NC(=O)[C@H](Cc2c[nH]c3ccccc23)NC(=O)[C@H](Cc2ccc3ccccc3c2)NC(=O)[C@@H]2CSCC(=O)CSC[C@H](NC(=O)[C@H](CCC(N)=O)NC1=O)C(=O)N[C@@H](Cc1c[nH]c3ccccc13)C(=O)N[C@@H](CCC(N)=O)C(=O)N2
B7: Compound 42 (peptide)
peptide: [3Amb]SCWQC[AEF][2Nal][αMeL]E[αMeR]-NH2
modifications: lactam N-10; linker 3-6 via CH2COCH2
SMILES: CC(C)C[C@]1(C)NC(=O)[C@H](Cc2ccc3ccccc3c2)NC(=O)[C@H](Cc2ccc(OCCN)cc2)NC(=O)[C@@H]2CSCC(=O)CSC[C@H](NC(=O)[C@H](CO)NC(=O)c3cccc(c3)CNC(=O)CC[C@@H](C(=O)N[C@@](C)(CCCNC(=N)N)C(N)=O)NC1=O)C(=O)N[C@@H](Cc1c[nH]c3ccccc13)C(=O)N[C@@H](CCC(N)=O)C(=O)N2
B8: Compound 50 (peptide)
peptide: [4‑(2-Aminoethyl)benzoyl]SCWQC[AEF][2Nal][αMeL]ER-NH2
modifications: lactam N-10; linker 3-6 via CH2COCH2
SMILES: CC(C)C[C@]1(C)NC(=O)[C@H](Cc2ccc3ccccc3c2)NC(=O)[C@H](Cc2ccc(OCCN)cc2)NC(=O)[C@@H]2CSCC(=O)CSC[C@H](NC(=O)[C@H](CO)NC(=O)c3ccc(cc3)CCNC(=O)CC[C@@H](C(=O)N[C@@H](CCCNC(=N)N)C(N)=O)NC1=O)C(=O)N[C@@H](Cc1c[nH]c3ccccc13)C(=O)N[C@@H](CCC(N)=O)C(=O)N2
B9: Compound 44 (peptide)
peptide: [3Amb]SCWQC[AEF][2Nal][αMeL]ES-NH2
modifications: lactam N-10; linker 3-6 via CH2COCH2
SMILES: CC(C)C[C@]1(C)NC(=O)[C@H](Cc2ccc3ccccc3c2)NC(=O)[C@H](Cc2ccc(OCCN)cc2)NC(=O)[C@@H]2CSCC(=O)CSC[C@H](NC(=O)[C@H](CO)NC(=O)c3cccc(c3)CNC(=O)CC[C@@H](C(=O)N[C@@H](CO)C(N)=O)NC1=O)C(=O)N[C@@H](Cc1c[nH]c3ccccc13)C(=O)N[C@@H](CCC(N)=O)C(=O)N2
B10: Compound 79 (peptide)
peptide: [3Amb]SCWQC[AEF][2Nal][αMeL]ER[4Pal]-NH2
modifications: lactam (positions not given here); linker 3-6 via CH2COCH2; not fully specified (bridges); printed as [(3-Aminomethyl)benzoyl](1c)*SC(2a)WQC(2a)[Y(2-aminoethoxy)][2-Nal][2-Me-Leu]E(1c)R[3-(4-Pyridyl)-Ala]-[NH2]
B11: Compound 70 (peptide)
peptide: [3Amb]SC[Trp(7-Me)]QC[AEF][2Nal][αMeL]ER-NH2
modifications: lactam (positions not given here); linker 3-6 via CH2COCH2; not fully specified (bridges)
B12: Compound 36 (peptide)
peptide: XSCWQCWXLER
HELM: PEPTIDE1{[bAla].S.C.W.Q.C.W.[O=C([C@H](Cc1ccc2ccccc2c1)N[*:1])[*:2]].L.E.R.[am]}|CHEM1{[O=C(C[*:1])C[*:2]]}$PEPTIDE1,PEPTIDE1,1:R1-10:R3|PEPTIDE1,CHEM1,3:R3-1:R1|PEPTIDE1,CHEM1,6:R3-1:R2$$$V2.0
SMILES: CC(C)C[C@@H]1NC(=O)[C@H](Cc2ccc3ccccc3c2)NC(=O)[C@H](Cc2c[nH]c3ccccc23)NC(=O)[C@@H]2CSCC(=O)CSC[C@H](NC(=O)[C@H](CO)NC(=O)CCNC(=O)CC[C@@H](C(=O)N[C@@H](CCCNC(=N)N)C(N)=O)NC1=O)C(=O)N[C@@H](Cc1c[nH]c3ccccc13)C(=O)N[C@@H](CCC(N)=O)C(=O)N2

Target: T1, human IL-23R endogenously expressed on …
Test: cell-based or functional assay

Binder | IC50 (pSTAT3)
Ac-DESCAQCWWLKR-NH2 (lactam 2-11; linker 4-7 via 1,3‑dibromopropan‑2‑one) [Compound 13] | > 1 µM
Ac-DESCWQCAWLKR-NH2 (lactam 2-11; linker 4-7 via 1,3‑dibromopropan‑2‑one) [Compound 14] | > 1 µM
Ac-DESCWQCWALKR-NH2 (lactam 2-11; linker 4-7 via 1,3‑dibromopropan‑2‑one) [Compound 15] | > 1 µM
B1 | 63.9 nM
cyclo(DSCWQCWWLR) (linker 3-6 via 1,3‑dibromopropan‑2‑one) [Compound 6] | > 1 µM
B2 | 19.6 nM
B3 | 19.3 nM
B4 | 41.1 nM
B5 | > 1 µM
[(4-Aminomethyl)benzoyl]SCWQC[AEF][2Nal][αMeL]ER-NH2 (lactam N-10; linker 3-6 via CH2COCH2) [Compound 49] | 20.3 nM
H-LCSCWQCWWLCR-NH2 (linker 2-11, 4-7 via CH2COCH2) [Compound 2] | 755 nM
H-DCSEWQKWWLCR-NH2 (linker 2-11 via 1,3‑dibromopropan‑2‑one; lactam 4-7) [Compound 5] | > 1 µM
B6 | > 1 µM
B7 | 24.7 nM
Ac-DCQCWQCYW[αMeL]CR-NH2 (linker 2-11, 4-7 via CH2COCH2) [Compound 63] | > 1 µM
B8 | 51.1 nM
B9 | 82.3 nM
Ac-DCQCWQC[2Nal]W[αMeL]CR-NH2 (linker 2-11, 4-7 via CH2COCH2) [Compound 62] | > 1 µM
B10 | 21.3 nM
[3‑(4-Aminophenyl)propanoyl]SCWQC[AEF][2Nal][αMeL]ER-NH2 (lactam N-10; linker 3-6 via CH2COCH2) [Compound 51] | 68.1 nM
B11 | 8.43 nM
[3Amb]SEWQ[Dab][AEF][2Nal][αMeL]ER-NH2 (lactam (positions not given here); lactam 3-6; not fully specified (bridges)) [Compound 67] | 35.3 nM
B12 | > 1 µM
